This data set concerns the molecule itself. The experiment in a line: crystal structure.

B1: Bovine S100B (Ca^2+-S100B in the SBiX crystal structures) (natural protein)
chain: MSELEKAVVALIDVFHQYSGREGDKHKLKKSELKELINNELSHFLEEIKEQEVVDKVMETLDSDGDGECDFQEFMAFVAMITTACHEFFEHE
With B1, the binding result is “binds”.

Source of the values: paper PMC2804263 (Biochemistry, 2009).
